# Assay results reported in patent publication US20240376151A1, “STAPLED PEPTIDES AND METHODS THEREOF” (FOG PHARMACEUTICALS, INC., priority 2022, published 2024).
# Numbered stars: 1 amine (or outer) side, 2 acyl side, 3 side chain; on linkers, the order of the positions; unused ones are H or OH. Bridge positions count the residues as written; N and C are the ends. Ends that are not written are not given here. Phenylene(1,4-NHCOCH2)2 = O=C(C[*:1])Nc1ccc(NC(=O)C[*:2])cc1
# Target: T1, WWP2^HECT (Homo sapiens, UniProt O00308)
# T1 construct: GST-TEV (N, cleaved yes); made in house; host or cells: Escherichia coli BL21 (DE3)
# T1 sequence (O00308 492-865): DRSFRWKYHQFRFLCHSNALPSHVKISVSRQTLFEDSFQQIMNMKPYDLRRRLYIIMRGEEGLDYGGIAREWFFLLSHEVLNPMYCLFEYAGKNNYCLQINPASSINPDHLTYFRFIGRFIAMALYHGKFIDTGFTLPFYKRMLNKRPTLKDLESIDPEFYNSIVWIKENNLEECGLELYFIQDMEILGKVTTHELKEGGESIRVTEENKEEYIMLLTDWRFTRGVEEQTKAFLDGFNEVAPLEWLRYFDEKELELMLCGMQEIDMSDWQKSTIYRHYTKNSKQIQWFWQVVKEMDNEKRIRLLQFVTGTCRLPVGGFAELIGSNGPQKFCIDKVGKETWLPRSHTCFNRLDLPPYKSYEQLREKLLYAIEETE
# Test: Naive Library Presenter Screening (phage, NGS), WWP2^HECT
# Assay type: binding
# Settings: for interaction data at Target Concentration 10: WWP2 target concentration 10 nM; for interaction data at Target Concentration 30: WWP2 target concentration 30 nM; for interaction data at Target Concentration 100: WWP2 target concentration 100 nM; for interaction data at Target Concentration 300: WWP2 target concentration 300 nM; for interaction data at Target Concentration 1000: WWP2 target concentration 1000 nM
Sequence,interaction data at Target Concentration 10,interaction data at Target Concentration 30,interaction data at Target Concentration 100,interaction data at Target Concentration 300,interaction data at Target Concentration 1000 (first column),interaction data at Target Concentration 1000 (second column)
"DPARVDCLVAADMCHMF (DPARVDCLVAADMCHMF-NH2; linker 7-14 via Phenylene(1,4-NHCOCH2)2; N-terminus assumed; SMILES CSCC[C@H](NC(=O)[C@H](Cc1c[nH]cn1)NC(=O)[C@@H]1CSCC(=O)Nc2ccc(cc2)NC(=O)CSC[C@H](NC(=O)[C@H](CC(=O)O)NC(=O)[C@@H](NC(=O)[C@H](CCCNC(=N)N)NC(=O)[C@H](C)NC(=O)[C@@H]2CCCN2C(=O)[C@@H](N)CC(=O)O)C(C)C)C(=O)N[C@@H](CC(C)C)C(=O)N[C@@H](C(C)C)C(=O)N[C@@H](C)C(=O)N[C@@H](C)C(=O)N[C@@H](CC(=O)O)C(=O)N[C@@H](CCSC)C(=O)N1)C(=O)N[C@@H](Cc1ccccc1)C(N)=O)",165,532,522,555,466,573
"DPARVNCHAAADTCFFF (linker 7-14 via Phenylene(1,4-NHCOCH2)2)",6,83,76,103,,123
"DPATWACINAAHNCWRN (DPATWACINAAHNCWRN-NH2; linker 7-14 via Phenylene(1,4-NHCOCH2)2 (inferred))",0,0,0,6,23,15
"DPATWDCIWAAERCWRY (linker 7-14 via Phenylene(1,4-NHCOCH2)2 (inferred); not fully specified (C-terminus))",0,0,1,4,9,13
"DPATWDCNVAAHRCWFL (linker 7-14 via Phenylene(1,4-NHCOCH2)2 (inferred); not fully specified (C-terminus))",1,0,12,60,40,75
"DPATWDCQQAAHHCWVL (linker 7-14 via Phenylene(1,4-NHCOCH2)2 (inferred); not fully specified (C-terminus))",0,0,2,23,35,66
"DPATWDCRNAAWLCLLN (linker 7-14 via Phenylene(1,4-NHCOCH2)2 (inferred); not fully specified (C-terminus))",0,1,4,8,12,12
